Key:
RBPJ-(53-474) [1] = molecular target: T1, RBPJ-(53-474) (mouse, UniProt P31266 53-474); assay: ITC
RBPJ-(53-474) [2] = molecular target: T1, RBPJ-(53-474); assay: ITC; remark: listed apart in the source

T1 sequence (P31266 53-474): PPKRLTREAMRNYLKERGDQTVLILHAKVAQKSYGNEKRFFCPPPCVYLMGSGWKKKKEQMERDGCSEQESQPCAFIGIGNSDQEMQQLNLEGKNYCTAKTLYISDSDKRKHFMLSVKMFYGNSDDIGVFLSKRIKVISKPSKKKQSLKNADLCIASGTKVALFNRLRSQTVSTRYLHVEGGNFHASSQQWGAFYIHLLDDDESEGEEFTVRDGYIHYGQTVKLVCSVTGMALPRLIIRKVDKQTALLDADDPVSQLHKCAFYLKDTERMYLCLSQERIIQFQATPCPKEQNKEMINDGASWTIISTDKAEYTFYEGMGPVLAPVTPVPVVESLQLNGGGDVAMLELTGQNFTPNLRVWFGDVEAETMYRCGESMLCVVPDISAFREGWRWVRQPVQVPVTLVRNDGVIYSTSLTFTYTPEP

B1: L3MBTL3-(31-70) (domain or fragment, human, UniProt Q96JM7 31-70, looked up)
chain: SDLKFRVNEFGALEVITDENEMENVKKATATTTWMVPTAQ
stoichiometry N (RBPJ-(53-474) [1]): 1 | Ka (RBPJ-(53-474) [2]): 2.27e+06 M⁻¹ | Kd (RBPJ-(53-474) [2]): 450 nM | dH (RBPJ-(53-474) [2]): -7.52 kcal/mol
